Results on three molecules are retold here after patent US20120324600A1, “CONSTITUTIVE SYNTHETIC PLANT PROMOTERS AND METHODS OF USE” (SYNGENTA PARTICIPATIONS AG, priority 2010, published 2012).

Holding throughout (type): in vivo
The test system of data set [1] is transgenic corn events. Briefly: Glyphosate phytotoxicity (percent injury) of transgenic corn events carrying promoter-EPSPS cassettes. The note with it: maize; for efficiency in promoting expression of an operably linked heterologous sequence compared with unmodified cestrum virus promoter: EPSPS gene, glyphosate tolerance. From the text: SEQ ID NO: 8 was synthesized by Gene Art as a SanDI/BamHI fragment then ligated directly into a cloning vector harboring the EPSPS gene (cZmEPSPSct-01) to confer glyphosate tolerance (Terada, et al., (1995) A type I element composed of the hexamer (ACGTCA) and octamer (CGCGGATC) motifs plays a role(s) in meristematic expression of a wheat histone H3 gene in transgenic rice plants. Plant Molecular Biology 27: 17-26). SEQ ID NO: 9 was created by ligation of the xZmH3Cis DNA elements to the prCMP promoter as an NheI fragment such that these elements are 5′ to the TATA-BOX (Brignon, et al., (1993) Nuclease sensitivity and functional analysis of a maize histone H3 gene promoter. Plant Molecular Biology 22: 1007-1015).
See Table 9 for glyphosate phytotoxicity, in terms of percent injury. Plants were sprayed with an appropriate amount of glyphosate (i.e. 4× Touchdown®) at the V4 stage and the V8 stage. Percent injury was measured at 7 and 14 days after the V4 stage glyphosate spray, as well as 7 and 14 days after V8 stage glyphosate spray.

The test system of data set [2] is transgenic soybean events. Briefly: tolerance to mesotrione herbicide spray of T1 transgenic soybean seedlings. To be noted: sprayed at V2 stage, rated approximately 10 days post-application. From the text: (§1) The first generation transgenic soybean events (T1) harboring SEQ ID NO: 3, SEQ ID NO: 4, SEQ ID NO: 5, SEQ ID NO: 6, or SEQ ID NO: 7 were characterized for segregation analysis, oat HPPD protein expression and tolerance to mesotrione herbicide spray. The green leaf tissues from the first trifoliate of five independent events were sampled to determine the segregation ratios (homozygous, heterozygous or null) of the individual seedlings as determined by zygosity Taqman® assays and oat HPPD protein expression by ELISA. At the V2 stage, the seedlings were sprayed with the HPPD inhibiting herbicide mesotrione and tolerance rating determined approximately 10 days post-application.

Data set [3] concerns oat HPPD protein expression. Briefly: oat HPPD protein expression by ELISA in T1 transgenic soybean events. The note with it: inferred from ELISA and mesotrione tolerance of HOM vs HET siblings.
Source text: To express a synthetic oat (Avena sativa) 4-hydroxyphenylpyruvate dioxygenase (cAvHPPD) in stably transformed soybean, viral transcriptional and translational enhancers, and a minimal promoter were created by PCR or direct DNA synthesis and combined by standard DNA restriction digestion and ligation reactions. A synthetic plant promoter comprising defined components eFMV (SEQ ID NO: 1), eTMV (SEQ ID NO: 2), the Cauliflower Mosaic Virus 35S enhancer region (e35S) and a minimal promoter (pr35SCMP: Cestrum Yellow Leaf Curl virus TATA-box motif; no CAAT 35S-proximal promoter sequence) were combined to create SEQ ID NO: 3. Subsequently, SEQ ID NO: 3 was modified by digestion with a DNA restriction enzyme XhoI to remove defined components e35S, pr35SCMP (including the TATA-box motif) followed by a standard ligation reaction to create SEQ ID NO: 4. […] One skilled in the art would readily recognize other subelements which would be suitable to use.
The plasmids containing the synthetic plant promoter expression cassettes were transformed into soybean using Agrobacterium tumefaciens. […] Expression of cAvHPPD of surviving T0 plants was quantified by ELISA (Engvall E, Perlman P (1971). “Enzyme-linked immunosorbent assay (ELISA). Quantitative assay of immunoglobulin G”. Immunochemistry 8(9):871-874).
as §1
A general note: ELISA stands for enzyme-linked immunosorbent assay.

B1: SEQ ID NO: 8: synthetic plant promoter for maize, subelements eFMV, e35S, prTaHisH3, eTMV; 834 bp (nucleic acid)
DNA: AGCTGCTTGTGGGGACCAGACAAAAAAGGAATGGTGCAGAATTGTTAGGCGCACCTACCAAAAGCATCTTTGCCTTTATTGCAAAGATAAAGCAGATTCCTCTAGTACAAGTGGGGAACAAAATAACGTGGAAAAGAGCTGTCCTGACAGCCCACTCACTAATGCGTATGACGAACGCAGTGACGACCACAAAACTCGAGACTTTTCAACAAAGGGTAATATCCGGAAACCTCCTCGGATTCCATTGCCCAGCTATCTGTCACTTTATTGTGAAGATAGTGGAAAAGGAAGGTGGCTCCTACAAATGCCATCATTGCGATAAAGGAAAGGCTATCGTTGAAGATGCCTCTGCCGACAGTGGTCCCAAAGATGGACCCCCACCCACGAGGAGCATCGTGGAAAAAGAAGACGTTCCAACCACGTCTTCAAAGCAAGTGGATTGATGTGATATCTCCACTGACGTAAGGGATGACGAACAATCCCACTATCCTTCTGCCGGACCCAAGCTTTCGGCCACGTCACCAATCCGCGGCATTCCTACCCGGATCGCCATCTCGACCGTCCACTCCATCCGCATCCAACGGCAAGTACATGCCTCTCGTCCCCTCCCGAAAAACCAAAACCCAAACCCGCCCGCTCTCTCGGTGCTCCTCCTATTTAACTCCGCCCCGTCCCCTTCTTCCTCCTCACCCCAATCTCCCCAGCCCCCAACCACCAGAGCCTCCTCCTCCCCTCCGGCGCATCGACGACAAGGGATCCACCTCGAGTATTTTTACAACAATTACCAACAACAACAAACAACAAACAACATTACAATTACTATTTACAATTACACATGTAAACC
modifications: synthetic plant promoter
notes: synthetic plant promoter for maize, subelements eFMV, e35S, prTaHisH3, eTMV; 834 bp
Regarding B1, in data set [1], the “evidence of HDGS and HDMS” value was “no evidence of HDGS and HDMS”; the “efficiency in promoting expression of an operably linked heterologous sequence compared with unmodified cestrum virus promoter” value was “function at least as well on average as the unmodified cestrum virus promoter”. Also, the “efficiency in promoting expression of an operably linked heterologous sequence compared with unmodified cestrum virus promoter” value in data set [1] (listed as 8) is on record as “as efficient in promoting the expression of an operably linked heterologous sequence as an unmodified cestrum virus promoter”.

B2: SEQ ID NO: 4: synthetic plant promoter, subelements eFMV, eTMV; 267 bp (nucleic acid)
DNA: AGCTGCTTGTGGGGACCAGACAAAAAAGGAATGGTGCAGAATTGTTAGGCGCACCTACCAAAAGCATCTTTGCCTTTATTGCAAAGATAAAGCAGATTCCTCTAGTACAAGTGGGGAACAAAATAACGTGGAAAAGAGCTGTCCTGACAGCCCACTCACTAATGCGTATGACGAACGCAGTGACGACCACAAAACTCGAGTATTTTTACAACAATTACCAACAACAACAAACAACAAACAACATTACAATTACTATTTACAATTACA
modifications: synthetic plant promoter
notes: synthetic plant promoter, subelements eFMV, eTMV; 267 bp
B2: the “tolerance to mesotrione herbicide spray” value in data set [2] is reported as “improved tolerance to the HPPD inhibitor herbicide mesotrione”. In addition, the “transgene silencing in HOM plants” value in data set [3] is on record as “relieve transgene silencing”.

B3: SEQ ID NO: 9: synthetic plant promoter for maize, subelements eFMV, e35S, eNOS, prCMP, xZmH3Cis, eTMV; 1294 bp (nucleic acid)
DNA: AGCTGCTTGTGGGGACCAGACAAAAAAGGAATGGTGCAGAATTGTTAGGCGCACCTACCAAAAGCATCTTTGCCTTTATTGCAAAGATAAAGCAGATTCCTCTAGTACAAGTGGGGAACAAAATAACGTGGAAAAGAGCTGTCCTGACAGCCCACTCACTAATGCGTATGACGAACGCAGTGACGACCACAAAACTCGAGACTTTTCAACAAAGGGTAATATCCGGAAACCTCCTCGGATTCCATTGCCCAGCTATCTGTCACTTTATTGTGAAGATAGTGGAAAAGGAAGGTGGCTCCTACAAATGCCATCATTGCGATAAAGGAAAGGCTATCGTTGAAGATGCCTCTGCCGACAGTGGTCCCAAAGATGGACCCCCACCCACGAGGAGCATCGTGGAAAAAGAAGACGTTCCAACCACGTCTTCAAAGCAAGTGGATTGATGTGATATCTCCACTGACGTAAGGGATGACGAACAATCCCACTATCCTTCTGCCGGACCCTCATGAGCGGAGAATTAAGGGAGTCACGTTATGACCCCCGCCGATGACGCGGGACAAGCCGTTTTACGTTTGGAACTGACAGAACCGCAACGAAGCTTTGGCAGACAAAGTGGCAGACATACTGTCCCACAAATGAAGATGGAATCTGTAAAAGAAAACGCGTGAAATAATGCGTCTGACAAAGGTTAGGTCGGCTGCCTTTAATCAATACCAAAGTGGTCCCTACCACGATGGAAAAACTGTGCAGTCGGTTTGGCTTTTTCTGACGAACAAATAAGATTCGTGGCCGACAGGTGGGGGTCCACCATGTGAAGGCATCTTCAGACTCCAATAATGGAGCAATGACGTAAGGGCTTACGAAATAAGTAAGGGTAGTTTGGCATATGCTGGTGGCAGAGGGTGTGCTTCCCTGCTTGGGCGGGCACGCTGGGATGGCGAAAATTTTCGGAAGCGCTGGGATGGCGAAAATTTTCGGAAGCGCTGGGCGCTGGCGCGGGCGGCGGACAACTATGGGTCGTTGGATTGGGAATTGGGATGGAGGGCGAGGGTGTCGCTGCTGGCGGGGGTCGATCCGCGTGTTGAGCGATCTGCGAGGATTATGTCCACTCACCCGTCAGTCTATAAATACTTAGCCCCTCCCTCATTGTTAAGGGAGCAAAATCTCAGAGAGATAGTCCTAGAGAGAGAAAGAGAGCAAGTAGCCTAGAAGTGGATCCACCTCGAGTATTTTTACAACAATTACCAACAACAACAAACAACAAACAACATTACAATTACTATTTACAATTACACATGTAAACC
modifications: synthetic plant promoter
notes: synthetic plant promoter for maize, subelements eFMV, e35S, eNOS, prCMP, xZmH3Cis, eTMV; 1294 bp
Regarding B3, in data set [1], the “evidence of HDGS and HDMS” value was “no evidence of HDGS and HDMS”; the “efficiency in promoting expression of an operably linked heterologous sequence compared with unmodified cestrum virus promoter” value is “function at least as well on average as the unmodified cestrum virus promoter”. The “efficiency in promoting expression of an operably linked heterologous sequence compared with unmodified cestrum virus promoter” value in data set [1] (listed as 9) is on record as “as efficient in promoting the expression of an operably linked heterologous sequence as an unmodified cestrum virus promoter”.
